# Reference: PMC12319226 (Frontiers in Bioinformatics, 2025)
# Positions count from the first letter of the chain named.
# T1: fHbp mutant 0017 (Neisseria meningitidis, fHbp v1.1 mutant, point mutant)
# T1 chain: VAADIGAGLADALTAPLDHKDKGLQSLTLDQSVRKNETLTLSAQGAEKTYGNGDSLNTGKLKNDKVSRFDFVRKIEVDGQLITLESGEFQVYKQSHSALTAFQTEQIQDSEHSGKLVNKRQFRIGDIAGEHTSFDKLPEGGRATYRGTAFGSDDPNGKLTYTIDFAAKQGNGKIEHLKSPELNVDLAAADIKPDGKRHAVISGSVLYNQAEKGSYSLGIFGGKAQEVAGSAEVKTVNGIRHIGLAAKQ
# T2: fHbp m001820 (Neisseria meningitidis fHbp v3.28, …, point mutant)
# T2 chain: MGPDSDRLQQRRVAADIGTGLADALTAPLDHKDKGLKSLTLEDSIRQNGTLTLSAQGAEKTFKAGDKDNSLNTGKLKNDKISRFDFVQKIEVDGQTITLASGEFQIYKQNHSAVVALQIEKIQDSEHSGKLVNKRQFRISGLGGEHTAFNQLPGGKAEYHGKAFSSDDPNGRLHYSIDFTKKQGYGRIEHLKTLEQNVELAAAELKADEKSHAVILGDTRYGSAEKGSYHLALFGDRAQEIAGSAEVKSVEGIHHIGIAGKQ
# T3: fHbp m001822 (Neisseria meningitidis, engineered fHbp …, point mutant)
# T3 chain: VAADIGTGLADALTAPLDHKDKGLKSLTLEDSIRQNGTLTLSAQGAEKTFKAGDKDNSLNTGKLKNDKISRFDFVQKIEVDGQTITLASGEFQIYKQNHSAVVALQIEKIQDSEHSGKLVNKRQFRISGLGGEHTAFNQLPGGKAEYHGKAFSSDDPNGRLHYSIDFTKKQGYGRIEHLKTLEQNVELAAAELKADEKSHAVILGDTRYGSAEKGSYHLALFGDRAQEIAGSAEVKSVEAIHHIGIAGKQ
# T4: fHbp m001848 (Neisseria meningitidis, engineered fHbp …, chimera)
# T4 chain: T3 chain with S237T
# T5: fHbp m001941 (Neisseria meningitidis fHbp v3.28, …, chimera)
# T5 chain: T2 chain with S223G, S249T, V250D, E251N, G252A
# T6: fHbp m001213 (Neisseria meningitidis fHbp v3.28-based …, point mutant)
# T6 chain: T2 chain with Y221L, S223G, S249T, V250D, E251N, G252A
# T7: fHbp m001529 (Neisseria meningitidis, fHbp …, point mutant)
# T7 chain: T2 chain with Y221L, G222N, S223Q, S249T, E251V
# T8: fHbp m001604 (Neisseria meningitidis, fHbp …, point mutant)
# T8 chain: T2 chain with Y221L, G222N, S249T
# T9: factor H binding protein variant 3.28 (Neisseria meningitidis, fHbp variant …)
# T9 construct: also called fHbp v3.28; v3.28 Control (0002)
# T9 chain: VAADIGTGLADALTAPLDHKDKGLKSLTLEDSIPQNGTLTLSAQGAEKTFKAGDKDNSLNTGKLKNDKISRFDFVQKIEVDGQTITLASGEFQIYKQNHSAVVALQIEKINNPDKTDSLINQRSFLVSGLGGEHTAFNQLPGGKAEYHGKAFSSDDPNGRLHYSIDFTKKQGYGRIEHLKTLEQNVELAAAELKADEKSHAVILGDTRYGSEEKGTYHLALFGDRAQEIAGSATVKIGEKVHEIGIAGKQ
# B1: mAb 4B3 (human) (antibody, V domains shown)
# VH: QVQLVQSGGGLVKPGGSLRLSCAASGFPFSSYYMSWIRQAPGKGLEWVSDINNSGNVKEYADFVKGRLTISRDNVKNSMYLHMNSLRVEDTAVYYCARNRGRFDVWGQGTLVTVSA
# VL: EIVMTQSPGTLSLSPGETATLSCRASQMISSPFLAWYQQRRGQAPRLLIYGASTRATDTPDRFRGSGSGTDFILTISRLEPEDFAVYYCQYYDDSPFTFGQGTKLEIK
# notes: also called 4B3-2; source: Expi293, purified (MabSelect SuRe, SEC); copies: 2 + 2
# B2: mAb 1E6 (human) (antibody, V domains shown)
# VH: EVQLVQSGAEVKKPGSSVKVSCKASGGTVIDYPITWVRQAPGQGLEWVGGFVPLFRTSNYGQKFQGRVTITADKSTSTASMELNSLTSEDTAIYYCARGDTAMGPFDYWGQGTLVTVSS
# VL: SYVLTQPPSLSVAPGKTATLTCGGNNIAGKTVHWYQQRPGQAPVLVISYDSDRPSGIPERFSGSNSANTATLTISRVEAGDEADYYCQVWDRNSDHWVFGGGTKLTVL
# notes: source: Expi293, purified (MabSelect SuRe, SEC); copies: 2 + 2
# Experiments:
# Experiment in all cases: BLI
# Details in all cases: both partners purified
# fHbp mutant 0017 = target: T1, fHbp mutant 0017
# fHbp m001820 = target: T2, fHbp m001820
# fHbp m001822 = target: T3, fHbp m001822
# fHbp m001848 = target: T4, fHbp m001848
# fHbp m001941 = target: T5, fHbp m001941
# fHbp m001213 = target: T6, fHbp m001213
# fHbp m001529 = target: T7, fHbp m001529
# fHbp m001604 = target: T8, fHbp m001604
# [1] = target: T9, factor H binding protein variant 3.28
binder,measurement,setting,value
B1,Kd,fHbp mutant 0017,2.98 nM
same,koff,fHbp mutant 0017,0.000964 s⁻¹
same,kon,fHbp mutant 0017,324100 ± 1980 M⁻¹ s⁻¹
B2,Kd,fHbp mutant 0017,4.23 nM
same,koff,fHbp mutant 0017,0.00199 s⁻¹
same,kon,fHbp mutant 0017,471400 ± 4100 M⁻¹ s⁻¹
same,Kd,fHbp m001820,0.531 nM
same,koff,fHbp m001820,0.000171 s⁻¹
same,kon,fHbp m001820,322300 ± 1430 M⁻¹ s⁻¹
same,Kd,fHbp m001822,0.455 nM
same,koff,fHbp m001822,0.00017 s⁻¹
same,kon,fHbp m001822,372900 ± 2610 M⁻¹ s⁻¹
same,Kd,fHbp m001848,0.344 nM
same,koff,fHbp m001848,0.000155 s⁻¹
same,kon,fHbp m001848,451100 ± 2150 M⁻¹ s⁻¹
same,Kd,fHbp m001941,0.464 nM
same,koff,fHbp m001941,0.00015 s⁻¹
same,kon,fHbp m001941,323000 ± 2300 M⁻¹ s⁻¹
same,Kd,fHbp m001213,0.594 nM
same,koff,fHbp m001213,0.000262 s⁻¹
same,kon,fHbp m001213,440700 ± 1810 M⁻¹ s⁻¹
same,Kd,fHbp m001529,0.338 nM
same,koff,fHbp m001529,0.000156 s⁻¹
same,kon,fHbp m001529,460900 ± 3880 M⁻¹ s⁻¹
same,Kd,fHbp m001604,0.493 nM
same,koff,fHbp m001604,0.000104 s⁻¹
same,kon,fHbp m001604,210000 ± 2260 M⁻¹ s⁻¹
same,Kd,[1],0.77 nM
same,koff,[1],0.000387 s⁻¹
same,kon,[1],501900 ± 2080 M⁻¹ s⁻¹
